Experimental data published in PMC6965710.
Substitutions are numbered along the chain they refer to.

How the values were obtained:
Assay in all cases: EMSA
Conditions in all cases: 8-oxo-7,8-dihydroguanosine at positions 3,7,11,15,19,23
[1] = target: T1, PNPase GFT S76G;F78T (Escherichia coli K12) (UniProt P05055)
T1 sequence: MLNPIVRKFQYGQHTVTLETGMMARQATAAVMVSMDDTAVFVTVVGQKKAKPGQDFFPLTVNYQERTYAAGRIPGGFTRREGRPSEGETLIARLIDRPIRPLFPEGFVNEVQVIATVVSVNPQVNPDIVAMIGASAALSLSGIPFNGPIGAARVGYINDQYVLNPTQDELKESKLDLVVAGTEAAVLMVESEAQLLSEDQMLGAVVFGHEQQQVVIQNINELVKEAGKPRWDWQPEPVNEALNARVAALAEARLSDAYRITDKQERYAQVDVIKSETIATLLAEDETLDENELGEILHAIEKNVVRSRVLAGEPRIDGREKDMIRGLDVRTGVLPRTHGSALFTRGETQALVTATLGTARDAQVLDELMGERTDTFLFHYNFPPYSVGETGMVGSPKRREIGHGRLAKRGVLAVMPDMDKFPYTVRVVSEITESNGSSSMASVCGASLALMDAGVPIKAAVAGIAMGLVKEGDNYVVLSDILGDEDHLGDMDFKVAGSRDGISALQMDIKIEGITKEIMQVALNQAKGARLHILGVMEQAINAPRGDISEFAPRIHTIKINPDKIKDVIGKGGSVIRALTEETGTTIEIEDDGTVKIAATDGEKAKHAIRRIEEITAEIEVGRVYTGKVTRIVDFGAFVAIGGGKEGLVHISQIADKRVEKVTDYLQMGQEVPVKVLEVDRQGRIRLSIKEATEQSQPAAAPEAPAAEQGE

[2] = target: T2, PNPase NFH S76N;F78H (Escherichia coli K12) (UniProt P05055)
T2 sequence: T1 sequence with G76N, T78H

[3] = target: T3, PNPase NYM S76N;F77Y;F78M (Escherichia coli K12) (UniProt P05055)
T3 sequence: T1 sequence with G76N, F77Y, T78M

[4] = target: T4, PNPase wild type (SFF) (Escherichia coli K12) (UniProt P05055)
T4 sequence: T1 sequence with G76S, T78F

For “NNGNNNGNNNGNNNGNNNGNNNGN [8-oxoG RNA 24-mer [NN(8-oxoG)N]6]”, the binding signal (Kd ratio unmodified/8-oxoG (selectivity)) [1] was 2.3, the binding signal (Kd ratio unmodified/8-oxoG (selectivity)) [2] was 2.5 and the binding signal (Kd ratio unmodified/8-oxoG (selectivity)) [3] was 2.8. The binding signal (Kd ratio unmodified/8-oxoG (selectivity)) [4] was 1.8.
